Measured values taken from patent US20210139548A1 (published 2021).
*1 amine or outer side, *2 acyl side, *3 side chain or, on linkers, in order; H or OH if unused. Side-chain parts run from the residue outwards. The star is where a group is joined. C18 diacid = O=C(O)CCCCCCCCCCCCCCCCC(=O)*; γGlu = O=C(O)[C@H](CCC(=O)[*:2])N[*:1]; Isovaleryl = CC(C)CC(=O)*; AEEA = NCCOCCOCC(=O)O

T1: human neuropeptide Y2 receptor (human, UniProt P49146 1-381)
T1 construct: whole, on cells; also called hNPY2 receptor; hNPY2-R
T1 sequence (looked up): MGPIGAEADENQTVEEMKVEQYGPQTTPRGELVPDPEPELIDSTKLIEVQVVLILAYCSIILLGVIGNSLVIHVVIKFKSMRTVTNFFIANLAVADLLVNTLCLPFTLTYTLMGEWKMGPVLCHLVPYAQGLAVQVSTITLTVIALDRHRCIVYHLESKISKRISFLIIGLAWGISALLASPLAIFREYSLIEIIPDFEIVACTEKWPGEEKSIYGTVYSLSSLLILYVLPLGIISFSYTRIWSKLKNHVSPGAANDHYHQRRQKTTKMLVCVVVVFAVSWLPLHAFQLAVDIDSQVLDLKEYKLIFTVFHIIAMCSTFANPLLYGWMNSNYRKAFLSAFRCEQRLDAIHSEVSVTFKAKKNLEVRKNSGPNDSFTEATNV


Biological target: T1, human neuropeptide Y2 receptor
Assay: radioligand competition (125I-PYY(1-36)), hNPY2R membranes
In short: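 Commercial human Y2 receptor membranes (0.5 μg protein/well) were incubated with peptide for 2 h at room temperature in 50 mM HEPES, 5 mM MgCl₂, 1 mM CaCl₂, pH 7.4, with 0.2% ovalbumin. Bound radioligand was separated on PEI-soaked GF/C filters and counted by scintillation, and IC₅₀ came from nonlinear sigmoidal regression.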

Binder	Ki
Isovaleryl-APEK([AEEA-AEEA-γGlu-C18 diacid])IEEEASPEELQRYYVSLRHYYNWLTRQRY-NH2 (SMILES CC[C@H](C)[C@H](NC(=O)[C@H](CCCCNC(=O)COCCOCCNC(=O)COCCOCCNC(=O)CC[C@H](NC(=O)CCCCCCCCCCCCCCCCC(=O)O)C(=O)O)NC(=O)[C@H](CCC(=O)O)NC(=O)[C@@H]1CCCN1C(=O)[C@H](C)NC(=O)CC(C)C)C(=O)N[C@@H](CCC(=O)O)C(=O)N[C@@H](CCC(=O)O)C(=O)N[C@@H](CCC(=O)O)C(=O)N[C@@H](C)C(=O)N[C@@H](CO)C(=O)N1CCC[C@H]1C(=O)N[C@@H](CCC(=O)O)C(=O)N[C@@H](CCC(=O)O)C(=O)N[C@@H](CC(C)C)C(=O)N[C@@H](CCC(N)=O)C(=O)N[C@@H](CCCNC(=N)N)C(=O)N[C@@H](Cc1ccc(O)cc1)C(=O)N[C@@H](Cc1ccc(O)cc1)C(=O)N[C@H](C(=O)N[C@@H](CO)C(=O)N[C@@H](CC(C)C)C(=O)N[C@@H](CCCNC(=N)N)C(=O)N[C@@H](Cc1c[nH]cn1)C(=O)N[C@@H](Cc1ccc(O)cc1)C(=O)N[C@@H](Cc1ccc(O)cc1)C(=O)N[C@@H](CC(N)=O)C(=O)N[C@@H](Cc1c[nH]c2ccccc12)C(=O)N[C@@H](CC(C)C)C(=O)N[C@H](C(=O)N[C@@H](CCCNC(=N)N)C(=O)N[C@@H](CCC(N)=O)C(=O)N[C@@H](CCCNC(=N)N)C(=O)N[C@@H](Cc1ccc(O)cc1)C(N)=O)[C@@H](C)O)C(C)C) [Compound 210]	10.5 nM
Isovaleryl-APEK([AEEA-AEEA-γGlu-C18 diacid])PEEDTAPEELQRYYVSLRHYYNWLTRQRY-NH2 (SMILES CC(C)CC(=O)N[C@@H](C)C(=O)N1CCC[C@H]1C(=O)N[C@@H](CCC(=O)O)C(=O)N[C@@H](CCCCNC(=O)COCCOCCNC(=O)COCCOCCNC(=O)CC[C@H](NC(=O)CCCCCCCCCCCCCCCCC(=O)O)C(=O)O)C(=O)N1CCC[C@H]1C(=O)N[C@@H](CCC(=O)O)C(=O)N[C@@H](CCC(=O)O)C(=O)N[C@@H](CC(=O)O)C(=O)N[C@H](C(=O)N[C@@H](C)C(=O)N1CCC[C@H]1C(=O)N[C@@H](CCC(=O)O)C(=O)N[C@@H](CCC(=O)O)C(=O)N[C@@H](CC(C)C)C(=O)N[C@@H](CCC(N)=O)C(=O)N[C@@H](CCCNC(=N)N)C(=O)N[C@@H](Cc1ccc(O)cc1)C(=O)N[C@@H](Cc1ccc(O)cc1)C(=O)N[C@H](C(=O)N[C@@H](CO)C(=O)N[C@@H](CC(C)C)C(=O)N[C@@H](CCCNC(=N)N)C(=O)N[C@@H](Cc1c[nH]cn1)C(=O)N[C@@H](Cc1ccc(O)cc1)C(=O)N[C@@H](Cc1ccc(O)cc1)C(=O)N[C@@H](CC(N)=O)C(=O)N[C@@H](Cc1c[nH]c2ccccc12)C(=O)N[C@@H](CC(C)C)C(=O)N[C@H](C(=O)N[C@@H](CCCNC(=N)N)C(=O)N[C@@H](CCC(N)=O)C(=O)N[C@@H](CCCNC(=N)N)C(=O)N[C@@H](Cc1ccc(O)cc1)C(N)=O)[C@@H](C)O)C(C)C)[C@@H](C)O) [Compound 212]	20.3 nM

These reach a lower Ki. Values come first.

Ki	Binder
8.07 nM	Isovaleryl-APEK([AEEA-AEEA-γGlu-C18 diacid])PEEDSEPEELQRYYVSLRHYYNWLTRQRY-NH2 (SMILES CC(C)CC(=O)N[C@@H](C)C(=O)N1CCC[C@H]1C(=O)N[C@@H](CCC(=O)O)C(=O)N[C@@H](CCCCNC(=O)COCCOCCNC(=O)COCCOCCNC(=O)CC[C@H](NC(=O)CCCCCCCCCCCCCCCCC(=O)O)C(=O)O)C(=O)N1CCC[C@H]1C(=O)N[C@@H](CCC(=O)O)C(=O)N[C@@H](CCC(=O)O)C(=O)N[C@@H](CC(=O)O)C(=O)N[C@@H](CO)C(=O)N[C@@H](CCC(=O)O)C(=O)N1CCC[C@H]1C(=O)N[C@@H](CCC(=O)O)C(=O)N[C@@H](CCC(=O)O)C(=O)N[C@@H](CC(C)C)C(=O)N[C@@H](CCC(N)=O)C(=O)N[C@@H](CCCNC(=N)N)C(=O)N[C@@H](Cc1ccc(O)cc1)C(=O)N[C@@H](Cc1ccc(O)cc1)C(=O)N[C@H](C(=O)N[C@@H](CO)C(=O)N[C@@H](CC(C)C)C(=O)N[C@@H](CCCNC(=N)N)C(=O)N[C@@H](Cc1c[nH]cn1)C(=O)N[C@@H](Cc1ccc(O)cc1)C(=O)N[C@@H](Cc1ccc(O)cc1)C(=O)N[C@@H](CC(N)=O)C(=O)N[C@@H](Cc1c[nH]c2ccccc12)C(=O)N[C@@H](CC(C)C)C(=O)N[C@H](C(=O)N[C@@H](CCCNC(=N)N)C(=O)N[C@@H](CCC(N)=O)C(=O)N[C@@H](CCCNC(=N)N)C(=O)N[C@@H](Cc1ccc(O)cc1)C(N)=O)[C@@H](C)O)C(C)C) [Compound 209]
0.93 nM	Isovaleryl-APAK([AEEA-AEEA-γGlu-C18 diacid])PEEDASPEELEQYYVSLRHYYNWLTRQRY-NH2 (SMILES CC(C)CC(=O)N[C@@H](C)C(=O)N1CCC[C@H]1C(=O)N[C@@H](C)C(=O)N[C@@H](CCCCNC(=O)COCCOCCNC(=O)COCCOCCNC(=O)CC[C@H](NC(=O)CCCCCCCCCCCCCCCCC(=O)O)C(=O)O)C(=O)N1CCC[C@H]1C(=O)N[C@@H](CCC(=O)O)C(=O)N[C@@H](CCC(=O)O)C(=O)N[C@@H](CC(=O)O)C(=O)N[C@@H](C)C(=O)N[C@@H](CO)C(=O)N1CCC[C@H]1C(=O)N[C@@H](CCC(=O)O)C(=O)N[C@@H](CCC(=O)O)C(=O)N[C@@H](CC(C)C)C(=O)N[C@@H](CCC(=O)O)C(=O)N[C@@H](CCC(N)=O)C(=O)N[C@@H](Cc1ccc(O)cc1)C(=O)N[C@@H](Cc1ccc(O)cc1)C(=O)N[C@H](C(=O)N[C@@H](CO)C(=O)N[C@@H](CC(C)C)C(=O)N[C@@H](CCCNC(=N)N)C(=O)N[C@@H](Cc1c[nH]cn1)C(=O)N[C@@H](Cc1ccc(O)cc1)C(=O)N[C@@H](Cc1ccc(O)cc1)C(=O)N[C@@H](CC(N)=O)C(=O)N[C@@H](Cc1c[nH]c2ccccc12)C(=O)N[C@@H](CC(C)C)C(=O)N[C@H](C(=O)N[C@@H](CCCNC(=N)N)C(=O)N[C@@H](CCC(N)=O)C(=O)N[C@@H](CCCNC(=N)N)C(=O)N[C@@H](Cc1ccc(O)cc1)C(N)=O)[C@@H](C)O)C(C)C) [Compound 216]
6.54 nM	Isovaleryl-APEK([AEEA-AEEA-γGlu-C18 diacid])PEEETSPEELQRYYVSLRHYYNWLTRQRY-NH2 (SMILES CC(C)CC(=O)N[C@@H](C)C(=O)N1CCC[C@H]1C(=O)N[C@@H](CCC(=O)O)C(=O)N[C@@H](CCCCNC(=O)COCCOCCNC(=O)COCCOCCNC(=O)CC[C@H](NC(=O)CCCCCCCCCCCCCCCCC(=O)O)C(=O)O)C(=O)N1CCC[C@H]1C(=O)N[C@@H](CCC(=O)O)C(=O)N[C@@H](CCC(=O)O)C(=O)N[C@@H](CCC(=O)O)C(=O)N[C@H](C(=O)N[C@@H](CO)C(=O)N1CCC[C@H]1C(=O)N[C@@H](CCC(=O)O)C(=O)N[C@@H](CCC(=O)O)C(=O)N[C@@H](CC(C)C)C(=O)N[C@@H](CCC(N)=O)C(=O)N[C@@H](CCCNC(=N)N)C(=O)N[C@@H](Cc1ccc(O)cc1)C(=O)N[C@@H](Cc1ccc(O)cc1)C(=O)N[C@H](C(=O)N[C@@H](CO)C(=O)N[C@@H](CC(C)C)C(=O)N[C@@H](CCCNC(=N)N)C(=O)N[C@@H](Cc1c[nH]cn1)C(=O)N[C@@H](Cc1ccc(O)cc1)C(=O)N[C@@H](Cc1ccc(O)cc1)C(=O)N[C@@H](CC(N)=O)C(=O)N[C@@H](Cc1c[nH]c2ccccc12)C(=O)N[C@@H](CC(C)C)C(=O)N[C@H](C(=O)N[C@@H](CCCNC(=N)N)C(=O)N[C@@H](CCC(N)=O)C(=O)N[C@@H](CCCNC(=N)N)C(=O)N[C@@H](Cc1ccc(O)cc1)C(N)=O)[C@@H](C)O)C(C)C)[C@@H](C)O) [Compound 213]
0.48 nM	Isovaleryl-APEK([AEEA-AEEA-γGlu-C18 diacid])PEEDASPAELQRYYVELRHYYNWLTRQRY-NH2 (SMILES CC(C)CC(=O)N[C@@H](C)C(=O)N1CCC[C@H]1C(=O)N[C@@H](CCC(=O)O)C(=O)N[C@@H](CCCCNC(=O)COCCOCCNC(=O)COCCOCCNC(=O)CC[C@H](NC(=O)CCCCCCCCCCCCCCCCC(=O)O)C(=O)O)C(=O)N1CCC[C@H]1C(=O)N[C@@H](CCC(=O)O)C(=O)N[C@@H](CCC(=O)O)C(=O)N[C@@H](CC(=O)O)C(=O)N[C@@H](C)C(=O)N[C@@H](CO)C(=O)N1CCC[C@H]1C(=O)N[C@@H](C)C(=O)N[C@@H](CCC(=O)O)C(=O)N[C@@H](CC(C)C)C(=O)N[C@@H](CCC(N)=O)C(=O)N[C@@H](CCCNC(=N)N)C(=O)N[C@@H](Cc1ccc(O)cc1)C(=O)N[C@@H](Cc1ccc(O)cc1)C(=O)N[C@H](C(=O)N[C@@H](CCC(=O)O)C(=O)N[C@@H](CC(C)C)C(=O)N[C@@H](CCCNC(=N)N)C(=O)N[C@@H](Cc1c[nH]cn1)C(=O)N[C@@H](Cc1ccc(O)cc1)C(=O)N[C@@H](Cc1ccc(O)cc1)C(=O)N[C@@H](CC(N)=O)C(=O)N[C@@H](Cc1c[nH]c2ccccc12)C(=O)N[C@@H](CC(C)C)C(=O)N[C@H](C(=O)N[C@@H](CCCNC(=N)N)C(=O)N[C@@H](CCC(N)=O)C(=O)N[C@@H](CCCNC(=N)N)C(=O)N[C@@H](Cc1ccc(O)cc1)C(N)=O)[C@@H](C)O)C(C)C) [Compound 215]
